PMC6736723

Molecular target: Scl1.41 on the surface of M41-type GAS cells (MGAS6183 wild type and Δscl1::scl1.41) (Streptococcus pyogenes (group A Streptococcus), M41-type strain MGAS6183)

Row | Substance | reduction in GAS (WT M41) adherence to CAF-derived matrices after 30 min pre-incubation of the cells with rTnFn1-5, against untreated WT | reduction in GAS (WT M41) adherence to CAF-derived matrices after 30 min pre-incubation of the cells with rTnFn6-8, against untreated WT
1 | recombinant tenascin-C fibronectin type III repeats 1-5 (rTnFn1-5) (domain or fragment) | 70% | 
2 | recombinant tenascin-C fibronectin type III repeats 6-8 (rTnFn6-8) (domain or fragment) |  | 40%
